# Assay results from US20230109780A1 (XIYUAN ANJIAN MEDICINE SHANGHAI, published 2023).
# Residue numbers refer to the chain shown, from its start.
# B1: humanized anti-NGF antibody 138E12-02 (antibody, V domains shown)
# VH: QVQLQESGPGLVKPSETLSLTCTVSGFSLTGYGVNWIRQPPGKGLEWLGMIWFDGSTDYNSALKSRLTISKDNSKSQVSLKLSSVTAADTAVYYCAREGYYYGTTYYFDYWGQGTTVTVSS
# VL: DIQMTQSPSSLSASVGDRVTITCRASQDISNYLNWYQQKPGKAPKLLIYYTSRLHSGVPSRFSGSGSGTDYTLTISSLQPEDFATYFCQQGNTLPRTFGGGTKVEIK
# notes: Humanized antibody expressed in CHO cells
# B2: humanized anti-NGF antibody 138E12-07 (antibody, V domains shown)
# VH: B1 VH with L48I, D54E, N60Q, L67V, K71V, N73T, S76N, V78F
# VL: B1 VL
# B3: humanized anti-NGF antibody 138E12-06 (antibody, V domains shown)
# VH: B1 VH with S61T
# VL: B1 VL
# B4: humanized anti-NGF antibody 138E12-03 (antibody, V domains shown)
# VH: B1 VH with D54E
# VL: B1 VL
# B5: humanized anti-NGF antibody 138E12-08 (antibody, V domains shown)
# VH: B1 VH with L48I, D54E, L67V
# VL: B1 VL
# B6: humanized anti-NGF antibody 138E12-04 (antibody, V domains shown)
# VH: B1 VH with G55A
# VL: B1 VL
# B7: humanized anti-NGF antibody 138E12-05 (antibody, V domains shown)
# VH: B1 VH with N60Q
# VL: B1 VL
# B8: humanized anti-NGF antibody 138E12-09 (antibody, V domains shown)
# VH: B1 VH with L48I, N60Q, L67V
# VL: B1 VL
# B9: humanized anti-NGF antibody 138E12-01 (antibody, V domains shown)
# VH: B1 VH with L48I, L67V
# VL: B1 VL
# notes: as for B1
# Target: T1, recombinant human NGF protein (human, UniProt P01138 122-241)
# T1 sequence (P01138 122-241 limits assumed): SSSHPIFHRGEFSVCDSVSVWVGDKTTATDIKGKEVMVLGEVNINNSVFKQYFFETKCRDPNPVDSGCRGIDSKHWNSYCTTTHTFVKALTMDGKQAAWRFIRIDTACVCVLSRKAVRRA
# Experiment: cell-based or functional assay
row,Binder,"IC50, inhibition of NGF-induced proliferation of TF-1 cell [nM]"
1,B1,0.064
2,B2,0.214
3,B3,0.125
4,B4,0.13
5,B5,0.067
6,B6,0.112
7,B7,0.136
8,B8,0.035
9,B9,0.03

# Target: T1, recombinant human NGF protein
# Experiment: ELISA, human NGF coated
# Procedure: The affinity and specificity of humanized antibody were investigated by using human NGF as an antigen (Beijing Yiqiao Shenzhou Technology Co., Ltd., 11050-HNAC). NGF was diluted with […] coating solution (PBS), and each well of 96-well microtiter plate was coated with 50 ng, after washing and blocking, and then added with serially diluted antibodies, and incubated at room temperature for 1 hour. After washing three times, HRP-conjugated donkey anti-human IgG antibody (Biolegend) was added and reacted at room temperature for 1 hour. After washing three times, tetramethylbenzidine (TMB, Biolegend) was added for color development. 1M HC1 was […] used to terminate the color development, and the absorbance values were read at 450 nm with a microplate reader.
row,Binder,EC50 [nM]
1,B1,0.042
2,B2,0.034
3,B3,0.05
4,B4,0.0392
5,B5,0.0253
6,B6,0.057
7,B7,0.0634
8,B8,0.027
9,B9,0.0403

# Target: T2, human NT-4 (human, UniProt P34130 81-210)
# T2 construct: Bought protein; also called Neurotrophic factor-4
# T2 sequence (looked up): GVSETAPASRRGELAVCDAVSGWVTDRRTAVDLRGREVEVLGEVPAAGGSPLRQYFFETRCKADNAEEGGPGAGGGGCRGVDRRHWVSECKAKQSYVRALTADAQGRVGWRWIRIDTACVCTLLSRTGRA
# Experiment: ELISA, plate coated with human NT-4 (50 ng per well), OD450
row,Binder,binding result
1,B1,no binding (tested: 66.67 nM)
2,B2,no binding (tested: 66.67 nM)
3,B3,no binding (tested: 66.67 nM)
4,B4,no binding (tested: 66.67 nM)
5,B5,no binding (tested: 66.67 nM)
6,B6,no binding (tested: 66.67 nM)
7,B7,no binding (tested: 66.67 nM)
8,B8,no binding (tested: 66.67 nM)
9,B9,no binding (tested: 66.67 nM)

# Target: T3, human NT-3 (human, UniProt P20783 139-257)
# T3 construct: Bought protein; also called Neurotrophic factor-3
# T3 sequence (looked up): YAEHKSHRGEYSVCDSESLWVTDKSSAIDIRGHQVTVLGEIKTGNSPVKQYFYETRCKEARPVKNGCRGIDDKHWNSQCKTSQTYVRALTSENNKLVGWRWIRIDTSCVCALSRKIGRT
# Experiment: ELISA, plate coated with human NT-3 (50 ng per well), OD450
# Procedure: Each well of a 96-well microtiter plate was coated with 50 ng of human NGF (Beijing Yiqiao Shenzhou Technology Co., Ltd., 11050-HNAC), human BDNF (Beijing Yiqiao Shenzhou Technology Co., Ltd., 50240-MNAS), human NT-3 (Beijing Yiqiao Shenzhou Technology Co., Ltd., 10286-HNAE), or human NT-4 (Alomone, N-270). The bindings of the murine anti-NGF antibodies to human NGF and three homo-family proteins were detected according to the method described in Example 2.
# The binding of the humanized anti-NGF antibody to human NGF and to three homo-family proteins was detected according to the ELISA method described in Example 6A.
row,Binder,binding result
1,B1,no binding (tested: 66.67 nM)
2,B2,no binding (tested: 66.67 nM)
3,B3,no binding (tested: 66.67 nM)
4,B4,no binding (tested: 66.67 nM)
5,B5,no binding (tested: 66.67 nM)
6,B6,no binding (tested: 66.67 nM)
7,B7,no binding (tested: 66.67 nM)
8,B8,no binding (tested: 66.67 nM)
9,B9,no binding (tested: 66.67 nM)

# Target: T4, human BDNF (human, UniProt P23560 129-247)
# T4 construct: Bought protein; also called Brain-Derived Neurotrophic Factor
# T4 sequence (looked up): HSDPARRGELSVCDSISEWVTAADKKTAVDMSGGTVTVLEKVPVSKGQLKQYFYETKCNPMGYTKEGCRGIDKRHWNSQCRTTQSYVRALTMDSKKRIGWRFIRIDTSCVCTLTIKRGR
# Experiment: ELISA, plate coated with human BDNF (50 ng per well), OD450
row,Binder,binding result
1,B1,no binding (tested: 66.67 nM)
2,B2,no binding (tested: 66.67 nM)
3,B3,no binding (tested: 66.67 nM)
4,B4,no binding (tested: 66.67 nM)
5,B5,no binding (tested: 66.67 nM)
6,B6,no binding (tested: 66.67 nM)
7,B7,no binding (tested: 66.67 nM)
8,B8,no binding (tested: 66.67 nM)
9,B9,no binding (tested: 66.67 nM)
